Reference: the Human Domainome abundance scans (Beltran et al. 2025)
± gives the uncertainty stated by the source.

B1: Homeobox expressed in ES cells 1, residues 110 to 165; numbered along this chain, Q9UBX0 (parent)
chain: RPRTAFTQNQIEVLENVFRVNCYPGIDIREDLAQKLNLEEDRIQIWFQNRRAKLKR
B2: RanBP-type and C3HC4-type zinc finger-containing protein 1, residues 369 to 411; numbered along this chain, Q9BYM8 (parent)
chain: YHCKTPDCKGWCFFEDDVNEFTCPVCFHVNCLLCKAIHEQMNC

Variants of: B1
Experiment: abundance fitness (aPCA) (normalised: wild type 0, dead -1); higher = more abundant; growth selection in yeast, the domain comes from the species named
Settings: Homo sapiens

| Variant | abundance fitness |
| --- | --- |
| A52N | -0.03 ± 0.17 |
| A52V | -0.348 ± 0.076 |
| A52F | -0.361 ± 0.15 |
| A52S | -0.104 ± 0.19 |
| A52M | -0.269 ± 0.26 |
| A52H | -0.05 ± 0.21 |
| A52T | 0.172 ± 0.13 |
| A52W | -0.505 ± 0.15 |
| A52D | -0.044 ± 0.22 |
| F47S | -0.724 ± 0.37 |
| F47D | -0.576 ± 0.46 |
| F47L | -0.842 ± 0.19 |
| F47W | -0.908 ± 0.44 |
| F47I | -0.449 ± 0.18 |
| F47R | -0.952 ± 0.2 |
| F47C | -0.851 ± 0.28 |
| F47A | -0.698 ± 0.17 |
| F47V | -0.841 ± 0.25 |
| F47E | -0.942 ± 0.32 |
| F47Y | -0.455 ± 0.49 |
| F47G | -0.855 ± 0.09 |
| K53S | -0.017 ± 0.083 |
| K53I | -0.156 ± 0.24 |

| Variant | abundance fitness |
| --- | --- |
| K53F | -0.326 ± 0.37 |
| K53M | -0.075 ± 0.15 |
| K53R | 0.059 ± 0.086 |
| K53T | -0.115 ± 0.14 |
| K53W | -0.405 ± 0.16 |
| K53P | -0.345 ± 0.29 |
| K53Q | 0.267 ± 0.13 |
| K53Y | -0.492 ± 0.15 |
| K53C | -0.459 ± 0.18 |
| K53D | -0.067 ± 0.26 |
| K53N | -0.284 ± 0.41 |
| K53V | -0.229 ± 0.19 |
| K53E | 0.176 ± 0.15 |
| K53L | -0.067 ± 0.071 |
| K53G | -0.141 ± 0.079 |
| K35M | -0.377 ± 0.1 |
| K35V | -0.694 ± 0.18 |
| K35E | 0.05 ± 0.13 |
| K35Q | -0.197 ± 0.19 |
| K35Y | -0.364 ± 0.29 |
| K35R | -0.194 ± 0.075 |
| K35I | -0.468 ± 0.18 |
| K35N | -0.317 ± 0.15 |

| Variant | abundance fitness |
| --- | --- |
| K35F | -0.603 ± 0.28 |
| K35C | -0.515 ± 0.3 |
| K35P | -1.15 ± 0.3 |
| K35W | -0.743 ± 0.11 |
| K35G | -0.657 ± 0.14 |
| K35S | -0.487 ± 0.14 |
| K35H | -0.651 ± 0.47 |
| Q44L | -0.079 ± 0.11 |
| Q44I | 0.061 ± 0.12 |
| Q44G | -0.206 ± 0.12 |
| Q44A | 0.087 ± 0.14 |
| Q44M | -0.12 ± 0.26 |
| Q44T | 0.038 ± 0.1 |
| Q44Y | -0.582 ± 0.33 |
| Q44C | 0.033 ± 0.085 |
| Q44V | -0.161 ± 0.12 |
| Q44P | -0.982 ± 0.31 |
| Q44H | 0.35 ± 0.18 |
| Q44D | -0.007 ± 0.17 |
| Q44S | -0.129 ± 0.08 |
| Q44W | -0.277 ± 0.23 |
| Q44K | 0.179 ± 0.17 |
| Q44F | -0.385 ± 0.28 |

| Variant | abundance fitness |
| --- | --- |
| Q44E | -0.532 ± 0.33 |
| Q44N | -0.059 ± 0.26 |
| E39D | 0.333 ± 0.33 |
| E39M | -0.562 ± 0.15 |
| E39V | -0.619 ± 0.12 |
| E39N | -0.241 ± 0.26 |
| E39S | 0.02 ± 0.082 |
| E39C | -0.104 ± 0.088 |
| E39G | -0.154 ± 0.098 |
| E39R | -0.34 ± 0.11 |
| E39A | -0.144 ± 0.18 |
| E39K | -0.476 ± 0.45 |
| E39Q | -0.185 ± 0.15 |
| E39W | -0.752 ± 0.23 |
| E39Y | -0.675 ± 0.12 |
| E39I | -1.06 ± 0.36 |
| E39L | -0.507 ± 0.12 |
| L38E | -0.521 ± 0.25 |
| L38D | -0.665 ± 0.38 |
| L38R | -0.849 ± 0.1 |
| L38S | -0.259 ± 0.11 |
| L38G | -0.952 ± 0.19 |
| L38C | 0.151 ± 0.11 |

| Variant | abundance fitness |
| --- | --- |
| L38N | -0.572 ± 0.27 |
| L38P | -0.533 ± 0.25 |
| L38I | 0.146 ± 0.12 |
| L38T | 0.077 ± 0.074 |
| L38A | -0.181 ± 0.14 |
| L38Q | -0.223 ± 0.39 |
| L38V | 0.061 ± 0.065 |
| L38F | 0.009 ± 0.13 |
| L38Y | -0.717 ± 0.26 |
| L38K | -0.685 ± 0.42 |
| L38W | -0.885 ± 0.36 |
| I43T | -0.543 ± 0.31 |
| I43G | -0.98 ± 0.13 |
| I43S | -0.917 ± 0.25 |
| I43K | -0.451 ± 0.4 |
| I43E | -0.966 ± 0.48 |
| I43R | -0.936 ± 0.26 |
| I43L | -0.581 ± 0.16 |
| I43W | -0.822 ± 0.16 |
| I43P | -0.912 ± 0.44 |
| I43Q | -0.796 ± 0.46 |
| R42K | 0.184 ± 0.3 |
| R42C | -0.03 ± 0.12 |

| Variant | abundance fitness |
| --- | --- |
| R42V | 0.135 ± 0.072 |
| R42H | -0.05 ± 0.077 |
| R42E | 0.255 ± 0.2 |
| R42N | 0.049 ± 0.15 |
| R42Q | 0.351 ± 0.3 |
| R42L | -0.156 ± 0.16 |
| R42S | 0.096 ± 0.078 |
| R42I | 0.055 ± 0.3 |
| R42D | -0.361 ± 0.25 |
| R42W | 0.065 ± 0.22 |
| R42A | 0.076 ± 0.11 |
| R42G | -0.399 ± 0.11 |
| R42Y | 0.037 ± 0.36 |
| R42T | 0.257 ± 0.14 |
| Q48A | 0.233 ± 0.13 |
| Q48R | 0.142 ± 0.12 |
| Q48S | -0.001 ± 0.14 |
| Q48K | 0.114 ± 0.17 |
| Q48E | -0.098 ± 0.12 |
| Q48I | -0.23 ± 0.22 |
| Q48N | -0.307 ± 0.34 |
| Q48P | -0.658 ± 0.5 |
| Q48T | 0.299 ± 0.14 |

| Variant | abundance fitness |
| --- | --- |
| Q48C | -0.466 ± 0.17 |
| Q48G | -0.461 ± 0.092 |
| Q48H | -0.287 ± 0.33 |
| Q48M | -0.073 ± 0.097 |
| Q48V | -0.026 ± 0.12 |
| R51Q | -0.43 ± 0.3 |
| R51M | -0.109 ± 0.12 |
| R51C | -0.368 ± 0.12 |
| R51E | -0.632 ± 0.12 |
| R51I | -0.336 ± 0.31 |
| R51G | -0.671 ± 0.18 |
| R51V | -0.243 ± 0.079 |
| R51A | -0.424 ± 0.17 |
| R51K | -0.577 ± 0.27 |
| R51D | 0.168 ± 0.45 |
| R51S | -0.491 ± 0.27 |
| R51T | -0.301 ± 0.23 |
| R51L | -0.752 ± 0.24 |
| R51Y | -0.782 ± 0.16 |
| R51N | -0.131 ± 0.19 |

Variants of: B2
Experiment: as above
Settings: Homo sapiens

| Variant | abundance fitness |
| --- | --- |
| DHCKTPDCKGWCFFEDDVNEFTCPVCFHVNCLLCKAIHEQMNC | 0.004 ± 0.33 |
| FHCKTPDCKGWCFFEDDVNEFTCPVCFHVNCLLCKAIHEQMNC | -0.282 ± 0.2 |
| CHCKTPDCKGWCFFEDDVNEFTCPVCFHVNCLLCKAIHEQMNC | -0.509 ± 0.11 |
| GHCKTPDCKGWCFFEDDVNEFTCPVCFHVNCLLCKAIHEQMNC | -0.331 ± 0.049 |
| AHCKTPDCKGWCFFEDDVNEFTCPVCFHVNCLLCKAIHEQMNC | -0.18 ± 0.093 |
